{"source": "patent US20220144930A1", "binders": {"B1": {"name": "humanized antibody VEGF-H988 (antibody, human IgG1, kappa, V domains shown)", "VH": "QSVQESGPGLVKPSETLSLTCTVSGIDLSSYAISWVRQPPGKGLEYIGYIWNDLFTYYASWAKGRVTISVDTSKNQVDLKLSSVTAADTAVYFCARGTLGDYGGMDPWGQGTLVTVSS", "VL": "ELQLTQSPSSLSASVGDRVTITCQSSKFLWQGRRLAWYQQKPGKVPKLLIYGASTLASGVPSRFKGSGSGTDFTLTISSLQPEDVATYYCAGYKSYDGDVVGFGGGTKVEIKR"}}, "key": {"[1]": {"molecular_target": "recombinant human VEGF165 protein (human) (UniProt P15692)", "experiment": "cell-based or functional assay"}, "[2]": {"molecular_target": "recombinant human VEGF165 protein (human) (UniProt P15692)", "experiment": "streptavidin-coated sensor with immobilized biotin-labeled VEGF165; reference Avastin"}, "[3]": {"molecular_target": "recombinant human VEGF165 protein (human) (UniProt P15692)", "experiment": "streptavidin-coated sensor with immobilized biotin-labeled VEGF165, antibody at several concentrations"}, "[4]": {"molecular_target": "recombinant human VEGF165 protein (human) (UniProt P15692)", "experiment": "ELISA; coated VEGF165 titrated 0.15-3000 ng/mL, antibody fixed at 1 µg/mL (EC50 is of the coating concentration)"}}}
{"binder": "B1", "values": [{"measurement": "EC50(nM), neutralizing VEGF165 at 10 ng/mL, HUVEC proliferation", "setting": "[1]", "value": 0.14, "unit": "nM"}, {"measurement": "EC50(nM), neutralizing VEGF165 at 10 ng/mL, HUVEC proliferation (run against Avastin)", "setting": "[1]", "value": 0.13, "unit": "nM"}, {"measurement": "EC50(nM), neutralizing VEGF165 at 100 ng/mL, HUVEC proliferation", "setting": "[1]", "value": 1.34, "unit": "nM"}, {"measurement": "EC50(nM), neutralizing VEGF165 at 100 ng/mL, HUVEC proliferation (run against Avastin)", "setting": "[1]", "value": 1.36, "unit": "nM"}, {"measurement": "EC50(nM), neutralizing VEGF165 at 1000 ng/mL, HUVEC proliferation", "setting": "[1]", "value": 9.67, "unit": "nM"}, {"measurement": "EC50(nM), neutralizing VEGF165 at 1000 ng/mL, HUVEC proliferation (run against Avastin)", "setting": "[1]", "value": 9.33, "unit": "nM"}, {"measurement": "maximum neutralization rate (%), VEGF165 at 10 ng/mL, HUVEC proliferation", "setting": "[1]", "value": 100, "unit": "%"}, {"measurement": "maximum neutralization rate (%), VEGF165 at 10 ng/mL, HUVEC proliferation (run against Avastin)", "setting": "[1]", "value": 100, "unit": "%"}, {"measurement": "maximum neutralization rate (%), VEGF165 at 100 ng/mL, HUVEC proliferation", "setting": "[1]", "value": 102, "unit": "%"}, {"measurement": "maximum neutralization rate (%), VEGF165 at 100 ng/mL, HUVEC proliferation (run against Avastin)", "setting": "[1]", "value": 102, "unit": "%"}, {"measurement": "maximum neutralization rate (%), VEGF165 at 1000 ng/mL, HUVEC proliferation", "setting": "[1]", "value": 104, "unit": "%"}, {"measurement": "maximum neutralization rate (%), VEGF165 at 1000 ng/mL, HUVEC proliferation (run against Avastin)", "setting": "[1]", "value": 104, "unit": "%"}, {"measurement": "fold affinity against Avastin", "setting": "[2]", "value": 1.5, "unit": "fold"}, {"measurement": "Kd", "setting": "[3]", "value": 0.0195, "unit": "nM"}, {"measurement": "koff", "setting": "[3]", "value": "6.7e-06", "unit": "s⁻¹"}, {"measurement": "kon", "setting": "[3]", "value": 344000, "unit": "M⁻¹ s⁻¹"}, {"measurement": "EC50", "setting": "[4]", "value": 2.42, "unit": "ng/mL"}]}
